# Source: patent US8846861B2, “Peptide clearing agents” (Mologic Ltd, priority 2009, dated 2014)
# Test system: CCL 229 (LoVo) CEA expressing cell line
# Assay: Flow cytometry cell binding, CEA expressing cell line
# Assay type: cell-based
# Details: CCL 229, PE label, 1 hour at 4° C.
# Method: Measurement by Flow Cytometry of Binding Capability of scFv Anti-CEA-CPG2 Using CEA Expressing Cells.
# CRL 1573—control cell line, CCL 229 (LoVo)—CEA expressing cell line
# Cultured cells were both used at 2×10^5 cells per tube, cells in tubes were prepared to contain the following
# Cells were spun down and 100 μl of antibody solution was added to respective tube. 100 μl buffer was added to tubes 1 and 2 and left in fridge until later.
# Tubes were incubated in the dark at 4° C. for 1 hour, add 1 ml PBSAB and spun as above. Include tube 1 in this wash. The supernatant was removed and 100 μl conjugate was added to tube 6 for a further incubation of 1 hr in the dark at 4° C.
# Added 150 μl 0.5% formaldehyde to tubes 1, 3, 4 and 5, stored in the fridge until measured (˜2 hours). Washed tube 6 as before and add formaldehyde to this tube. 30 minutes before measuring add 100 μl Propidium Iodine to tube 2, before measuring, added 1 ml of PBS to all samples.
molecule,measurement,value
"CPG2 control: carboxypeptidase G2 conjugated to phycoerythrin, control without anti-CEA part (protein) ALAQKRDNVLFQAATDEQPAVIKTLEKLVNIETGTGDAEGIAAAGNFLEAELKNLGFTVTRSKSAGLVVGDNIVGKIKGRGGKNLLLMSHMDTVYLKGILAKAPFRVEGDKAYGPGIADDKGGNAVILHTLKLLKEYGVRDYGTITVLFNTDEEKGSFGSRDLIQEEAKLADYVLSFEPTSAGDEKLSLGTSGIAYVQVNITGKASHAGAAPELGVNALVEASDLVLRTMNIDDKAKNLRFNWTIAKAGNVSNIIPASATLNADVRYARNEDFDAAMKTLEERAQQKKLPEADVKVIVTRGRPAFNAGEGGKKLVDKAVAYYKEAGGTLGVEERTGGGTDAAYAALSGKPVIESLGLPGFGYHSDKAEYVDISAIPRRLYMAARLIMDLGAGK",binding to cells by flow cytometry (in words),does not bind
